Source: publication PMC12117103, “Cryo-EM Structure of the relaxosome, a complex essential for bacterial mating and the spread of antibiotic resistance genes” (Nature Communications, 2024)

Target: the molecule itself
Assay: SEC; last purification step of TraM on Superdex 200 Increase 10/300 in 20 mM Tris-HCl pH 7.5, 100 mM NaCl

B1: TraM (F plasmid) (natural protein, E. coli F plasmid, UniProt P10026 1-127, looked up)
chain: MAKVNLYISNDAYEKINAIIEKRRQEGAREKDVSFSATASMLLELGLRVHEAQMERKESAFNQTEFNKLLLECVVKTQSSVAKILGIESLSPHVSGNSKFEYANMVEDIREKVSSEMERFFPKNDDE
notes: TraM accessory protein of the F plasmid; synthetic traM gene in the NcoI and HindIII sites of pET28a; In the relaxosome only an AlphaFold model was docked into low-resolution density; also called TraM tetramer; source: E. coli C41 (DE3), purified (ammonium sulphate, HiTrap Heparin, resource Q, HiTrap Blue, Superdex 200 SEC)
B1: binds.
